Laboratory results from PMC3817407.

What was measured:
ECF02_915 = target: T1, ECF02_915
T1 chain: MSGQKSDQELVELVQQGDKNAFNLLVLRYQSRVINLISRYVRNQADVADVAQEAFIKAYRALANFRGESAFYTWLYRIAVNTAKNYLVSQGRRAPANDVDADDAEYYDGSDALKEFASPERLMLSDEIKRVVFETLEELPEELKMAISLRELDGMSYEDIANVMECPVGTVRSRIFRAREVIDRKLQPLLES

ECF03_1244 = target: T2, ECF03_1244
T2 chain: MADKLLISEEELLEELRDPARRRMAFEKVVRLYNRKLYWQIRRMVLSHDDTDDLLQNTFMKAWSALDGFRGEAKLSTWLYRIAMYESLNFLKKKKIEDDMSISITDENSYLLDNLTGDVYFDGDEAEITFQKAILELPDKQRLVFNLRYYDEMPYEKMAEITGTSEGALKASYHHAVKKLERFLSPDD

ECF11_3726 = target: T3, ECF11_3726
T3 chain: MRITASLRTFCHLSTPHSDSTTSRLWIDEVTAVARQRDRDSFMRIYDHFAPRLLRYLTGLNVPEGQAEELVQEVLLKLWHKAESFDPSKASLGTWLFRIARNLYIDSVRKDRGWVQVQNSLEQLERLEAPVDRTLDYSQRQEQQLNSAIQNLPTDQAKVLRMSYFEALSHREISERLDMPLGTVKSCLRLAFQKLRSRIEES

ECF14_1324 = target: T4, ECF14_1324
T4 chain: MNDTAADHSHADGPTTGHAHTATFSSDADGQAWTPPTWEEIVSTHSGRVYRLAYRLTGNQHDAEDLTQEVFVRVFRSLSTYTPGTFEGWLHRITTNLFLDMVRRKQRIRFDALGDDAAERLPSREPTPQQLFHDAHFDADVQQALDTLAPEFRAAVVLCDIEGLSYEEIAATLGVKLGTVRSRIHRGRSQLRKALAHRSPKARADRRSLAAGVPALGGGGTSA

ECF14_3200 = target: T5, ECF14_3200
T5 chain: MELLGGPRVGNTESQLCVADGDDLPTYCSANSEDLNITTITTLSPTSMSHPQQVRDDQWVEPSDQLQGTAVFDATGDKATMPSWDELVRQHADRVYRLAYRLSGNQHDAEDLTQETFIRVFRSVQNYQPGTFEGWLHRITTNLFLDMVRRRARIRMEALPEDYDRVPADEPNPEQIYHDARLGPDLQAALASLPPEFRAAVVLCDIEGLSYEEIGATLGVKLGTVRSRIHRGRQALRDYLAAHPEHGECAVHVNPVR

ECF15_524 = target: T6, ECF15_524
T6 chain: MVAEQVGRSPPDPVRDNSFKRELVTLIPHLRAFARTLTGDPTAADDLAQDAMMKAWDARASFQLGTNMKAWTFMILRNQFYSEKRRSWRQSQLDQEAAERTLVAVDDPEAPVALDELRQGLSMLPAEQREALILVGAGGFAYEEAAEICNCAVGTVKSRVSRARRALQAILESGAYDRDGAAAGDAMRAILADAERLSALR

ECF20_992 = target: T7, ECF20_992
T7 chain: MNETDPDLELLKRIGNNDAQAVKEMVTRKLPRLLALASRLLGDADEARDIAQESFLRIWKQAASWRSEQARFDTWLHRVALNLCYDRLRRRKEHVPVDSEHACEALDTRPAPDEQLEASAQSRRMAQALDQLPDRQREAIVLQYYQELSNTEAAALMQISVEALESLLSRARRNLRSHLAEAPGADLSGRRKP

ECF25_1645 = target: T8, ECF25_1645
T8 chain: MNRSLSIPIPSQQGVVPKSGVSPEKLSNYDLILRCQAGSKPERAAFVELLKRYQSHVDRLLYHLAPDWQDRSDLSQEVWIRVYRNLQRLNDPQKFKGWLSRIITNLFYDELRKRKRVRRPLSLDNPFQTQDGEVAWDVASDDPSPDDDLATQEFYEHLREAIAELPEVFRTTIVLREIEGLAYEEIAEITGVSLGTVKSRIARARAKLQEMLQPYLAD

ECF30_35 = target: T9, ECF30_35
T9 chain: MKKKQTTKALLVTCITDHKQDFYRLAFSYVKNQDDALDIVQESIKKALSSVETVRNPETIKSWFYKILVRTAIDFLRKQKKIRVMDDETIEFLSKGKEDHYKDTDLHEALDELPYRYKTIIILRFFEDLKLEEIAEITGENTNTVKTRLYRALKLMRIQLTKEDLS

ECF31_34 = target: T10, ECF31_34
T10 chain: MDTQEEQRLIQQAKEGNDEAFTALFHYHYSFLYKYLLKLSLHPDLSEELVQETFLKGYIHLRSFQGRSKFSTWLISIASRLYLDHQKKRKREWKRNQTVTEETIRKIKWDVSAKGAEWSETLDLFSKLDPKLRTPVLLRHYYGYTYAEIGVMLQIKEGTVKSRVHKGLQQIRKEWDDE

ECF33_423 = target: T11, ECF33_423
T11 chain: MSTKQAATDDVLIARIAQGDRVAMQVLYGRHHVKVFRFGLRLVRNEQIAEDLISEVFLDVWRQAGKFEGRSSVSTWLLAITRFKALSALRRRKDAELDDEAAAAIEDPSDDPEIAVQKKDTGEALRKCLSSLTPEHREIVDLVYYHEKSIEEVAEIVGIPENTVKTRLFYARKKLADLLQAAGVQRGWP

ECF34_1384 = target: T12, ECF34_1384
T12 chain: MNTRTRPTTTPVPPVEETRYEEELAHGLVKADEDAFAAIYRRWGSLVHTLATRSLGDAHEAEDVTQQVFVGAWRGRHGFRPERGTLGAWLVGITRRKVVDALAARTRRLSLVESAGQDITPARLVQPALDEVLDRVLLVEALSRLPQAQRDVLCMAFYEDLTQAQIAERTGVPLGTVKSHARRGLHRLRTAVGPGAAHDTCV

ECF37_2513 = target: T13, ECF37_2513
T13 chain: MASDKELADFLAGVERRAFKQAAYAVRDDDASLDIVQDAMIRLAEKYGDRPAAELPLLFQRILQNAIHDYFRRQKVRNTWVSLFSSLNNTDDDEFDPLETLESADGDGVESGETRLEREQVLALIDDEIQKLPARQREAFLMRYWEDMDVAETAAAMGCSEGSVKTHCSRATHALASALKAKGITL

ECF38_1322 = target: T14, ECF38_1322
T14 chain: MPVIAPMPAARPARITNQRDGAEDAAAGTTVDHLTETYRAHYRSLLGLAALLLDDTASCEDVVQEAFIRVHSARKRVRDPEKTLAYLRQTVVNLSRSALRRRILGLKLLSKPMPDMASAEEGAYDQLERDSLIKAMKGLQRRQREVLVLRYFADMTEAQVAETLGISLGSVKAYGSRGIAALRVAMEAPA

Row | Binder | fold repression (ECF02_915) | fold repression (ECF03_1244) | fold repression (ECF11_3726) | fold repression (ECF14_1324) | fold repression (ECF14_3200) | fold repression (ECF15_524) | fold repression (ECF20_992) | fold repression (ECF25_1645) | fold repression (ECF30_35) | fold repression (ECF31_34) | fold repression (ECF33_423) | fold repression (ECF34_1384) | fold repression (ECF37_2513) | fold repression (ECF38_1322)
1 | AS16_973 (protein) MKTDDLIALLAAGEGPVPRHAVGRRMAVAALGGLTAALLLTITLYGVRSDITEVAQTPLFWGKVAFPTSLALIGLWLTSRLARPGGKGAAGWKMLGLPLLLVWCGAAVSIAGAPVDARADLLFGRTWRTCALNIALLSVPAFVTVFWALKGLAPTRLRLAGAAGGLLAGSSATVAYCLHCPEMGVPFWGVWYVLGMLVPTVLGAWWGPRMLRW | 0.403 | 0.783 | 1.29 | 0.887 | 0.918 | 0.668 | 0.636 | 0.538 | 0.463 | 0.696 | 0.683 | 0.757 | 1.04 | 0.629
2 | AS20_992 (protein) MTPERFVHLADAYGADLQRWPSAERAAAQALLDCGDAQAVAALRQAHWLDSQLDRYQVPAPSPALAQRIIAAAQQPGAPFWSRYAGWLASLGWVGVGLTGVAAGMLAVALSLPLSTSAEALPSVFDQSDAEFVLSINAEEAEQ | 1.93 | 1.39 | 1.91 | 1.64 | 2.04 | 1.58 | 169 | 1.3 | 1.61 | 1.96 | 1.32 | 1.64 | 1.98 | 1.72
3 | AS16_3622 (protein) MMKTDELISLLATAEGPVDRHALARRLGLALLAGLLGALLLTVALYGVRSDLAEVARTPLFWAKVALPTSLALLGLWLTQRLARPGVRGGALWGLLGVPLLLVWLGAAISLFGAPPEARADLIFGRTWRTCALNITLLSTPVFIAVFWALRGLAPTRLRQAGAAGGLLAGSTATLVYCLHCPEMGVPFWGLWYLLGMLVPTLLGAVLGPRLLRW | 1.26 | 2.09 | 6.84 | 8.8 | 8.73 | 3.36 | 2.48 | 1.53 | 0.992 | 2.85 | 1.87 | 2.8 | 4.97 | 2.34
4 | AS15_524 (protein) MNFGVEDMIEHVPMEDKRKGAAALDEARLRQQAIGVKLRQMFDEVVNEPVPDEFLAILRKAERPAGGE | 2.67 | 2.96 | 8.06 | 10.5 | 12.9 | 31.4 | 5.56 | 3.69 | 5.98 | 6.57 | 6.68 | 5.15 | 4.17 | 4.8
5 | AS02_915 (protein) MEKTGQEWVSASVDGETDRQTLAELAADTDSHAKWQRYHLMGDAMRDELPQAMPLDLSARIAAALEDEPTILAPKVEREATQAPSRAVVVPFMRQLGQYGIAAAVALMAVVGVQNYQSTQDDAPLPVLNTRPLVGTATPVSLQTGPVANQNQGNANDQLLEQRRRINAYLQDHMLQQRLNTGAVVDDNSEVTPIPVNR | 29.2 | 3.01 | 7.44 | 4.42 | 6.23 | 2.55 | 4.44 | 1.99 | 2.79 | 3.89 | 2.28 | 3.28 | 2.48 | 2.24
